According to patent US20110014656A1:

Columns and labels:
[1] = biological target: T1, human IL-17 receptor (IL-17RA) on transfected cells (human), Q96F46; assay: saturation binding, iodinated cytokine on transfected BHK cells; saturation binding; fold comparison with the other Kd values of Table 1; conditions: remark: other sources report otherwise
[2] = biological target: T1, human IL-17 receptor (IL-17RA) on …; assay: saturation binding, iodinated cytokine on transfected BHK cells; saturation binding, iodinated hIL-17F on hIL-17RA BHK cells; conditions: remark: other sources report otherwise

T1 sequence (Q96F46 33-320 limits assumed): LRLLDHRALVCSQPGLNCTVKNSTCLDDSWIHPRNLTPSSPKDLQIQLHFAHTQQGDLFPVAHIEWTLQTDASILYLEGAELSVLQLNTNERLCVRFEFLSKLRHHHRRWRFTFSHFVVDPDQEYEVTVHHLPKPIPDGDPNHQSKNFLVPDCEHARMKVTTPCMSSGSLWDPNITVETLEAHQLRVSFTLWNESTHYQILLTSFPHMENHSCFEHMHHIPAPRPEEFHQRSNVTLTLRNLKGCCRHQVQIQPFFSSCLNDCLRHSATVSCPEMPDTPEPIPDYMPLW

B1: human IL-17F, Q96PD4 31-163 (ligand)
chain: RKIPKVGHTFFQKPESCPPVPGGSMKLDIGIINENQRVSMSRNIESRSTSPWNYTVTWDPNRYPSEVVQAQCRNLGCINAQGKEDISMNSVPIQQETLVVRRKHQGCSVSFQLEKVLVTVGCTCVTPVIHHVQ
- fold lower affinity relative to the other affinities measured [1]: 1000 fold
- Kd [2]: 1500 nM
